B1: 2-2 (antibody, V domains shown)
VH: EVQLLESGGGLVQPGGSLRLSCAASGFTFSRHAMNWVRQAPGKGLEWVSGISGSGDETYYADSVKGRFTISRDNSKNTLYLQMNSLRAEDTAVYYCARDLPASYYDSSGYYWHNGMDVWGQGTLVTVSS
VL: DIQMTQSPSSLSASVGDRVTITCRASQTINTYLNWYQQKPGKAPKLLIYSASTLQSGVPSRFSGSGSGTDFTLTISSLQPEDFATYYCQQSYSTFTFGQGTKVEIK
notes: also called variant 2-2
B2: 2-12 (antibody, V domains shown)
VH: EVQLLESGGGLVQPGGSLRLSCAASGFTFSDYPMNWVRQAPGKGLEWVSTISGSGGITFYADSVKGRFTISRDNSKNTLYLQMNSLRAEDTAVYYCVRHDEYSFDYWGQGTLVTVSS
VL: DIQMTQSPSSLSASVGDRVTITCRASQSIDNYLNWYQQKPGKAPKLLIYGVSALQSGVPSRFSGSGSGTDFTLTISSLQPEDFATYYCQQSHSAPPYFFGQGTKVEIK
notes: also called variant 2-12
B3: 2-8 (antibody, V domains shown)
VH: EVQLLESGGGLVQPGGSLRLSCAASGFTFSDFAMAWVRQAPGKGLEWVSAISGSGDITYYADSVKGRFTISRDNSKNTLYLQMNSLRAEDTAVYYCAREADGLHSPWHFDLWGQGTLVTVSS
VL: B2 VL with N31T, G50A, V51A, Q55A, H92Y, F98T
notes: also called variant 2-8
B4: 2-5 (antibody, V domains shown)
VH: B3 VH
VL: B2 VL with D30H, N31T, G50A, V51A, Q55A, H92Y, F98T
notes: also called variant 2-5
B5: 2-4 (antibody, V domains shown)
VH: B3 VH
VL: B2 VL with N31T, G50A, V51A, Q55A, H92Y, F98T
notes: also called variant 2-4
B6: SARS-CoV-2 S1 variant 2-2 (antibody, V domains shown)
VH: B1 VH
VL: B1 VL
B7: SARS-CoV-2 S1 variant 2-5 (antibody, V domains shown)
VH: B3 VH
VL: B2 VL with D30H, N31T, G50A, V51A, Q55A, H92Y, F98T
B8: variant 2-2 (antibody, V domains shown)
VH: B1 VH
VL: B1 VL
B9: variant 2-5 (antibody, V domains shown)
VH: B3 VH
VL: B2 VL with D30H, N31T, G50A, V51A, Q55A, H92Y, F98T
B10: 2-9 (antibody, V domains shown)
VH: EVQLLESGGGLVQPGGSLRLSCAASGFTFPRYAMSWVRQAPGKGLEWVSTISGSGSTTYYADSVKGRFTISRDNSKNTLYLQMNSLRAEDTAVYYCARLIDAFDIWGQGTLVTVSS
VL: DIQMTQSPSSLSASVGDRVTITCRASQRIGTYLNWYQQKPGKAPKLLIYAASNLEGGVPSRFSGSGSGTDFTLTISSLQPEDFATYYCQQNYSTTWTFGQGTKVEIK
notes: also called variant 2-9
B11: variant 3-10 (antibody, V domains shown)
VH: EVQLLESGGGLVQPGGSLRLSCAASGFTFRSHAMSWVRQAPGKGLEWVSSISGGGASTYYADSVKGRFTISRDNSKNTLYLQMNSLRAEDTAVYYCARVKYLTTSSGWPRPYFDNWGQGTLVTVSS
VL: DIQMTQSPSSLSASVGDRVTITCRASQSIRKYLNWYQQKPGKAPKLLIYASSTLQRGVPSRFSGSGSGTDFTLTISSLQPEDFATYYCQQSLSTPFTFGGGTKVEIK
B12: variant 2-9 (antibody, V domains shown)
VH: B10 VH
VL: B10 VL
B13: variant 2-2 (antibody, V domains shown)
VH: B1 VH
VL: B1 VL
B14: variant 2-8 (antibody, V domains shown)
VH: B3 VH
VL: B2 VL with N31T, G50A, V51A, Q55A, H92Y, F98T
B15: variant 2-12 (antibody, V domains shown)
VH: B2 VH
VL: B2 VL
B16: variant 2-4 (antibody, V domains shown)
VH: B3 VH
VL: B2 VL with N31T, G50A, V51A, Q55A, H92Y, F98T
B17: variant 2-13 (antibody, V domains shown)
VH: B2 VH with T50A, G56D, I57N, F59Y
VL: B2 VL with N31T, V51A, Q55E
B18: variant 2-5 (antibody, V domains shown)
VH: B3 VH
VL: B2 VL with D30H, N31T, G50A, V51A, Q55A, H92Y, F98T

Numbering of substitutions follows the chain as printed.

One test has as its target T1, SARS-CoV-2 S protein trimer (SARS-CoV-2, UniProt P0DTC2 14-1208). In words: Carterra SPR, direct capture (DC), S trimer.
As usually defined, the Kd is the concentration at which binding is half-saturated. Low readings indicate tighter binding, high ones weaker binding. Turning to B1, the Kd turned out to be 1.4 nM.
Molecule B2 displayed a Kd of 63.8 nM. This Kd is about 46-fold higher than that of the molecule before.
In turn, B3 came in with a Kd of 47.4 nM. The Kd values of the last two molecules are within 1.5-fold of each other.
B4 yielded a Kd of 17.3 nM.

The next test concerns the target T1, SARS-CoV-2 S protein trimer. The experiment in a line: Carterra SPR, DB format, S trimer.
For B1, the Kd was found to be 1.2 nM.
Regarding B2, the Kd worked out at 6.4 nM.
The same measure, in the same setting: with B5 the figure was 4340 nM.
The same measure, in the same setting: the result for B3 reads 115 nM.

The next test addresses T2, Acro COVID S1 (S1N-C82E8) (SARS-CoV-2, UniProt P0DTC2 16-685).
T2 construct: domain: subunit 1 (S1)
The experiment in a line: phage ELISA.
Regarding B6, the “ELISA fold over background” value came to 39.4 fold.
Take B7: the “ELISA fold over background” value came out at 38.3 fold.

The target in a further test is T2, Acro COVID S1 (S1N-C82E8). In words: phage ELISA. This is another data set of the same source. In general terms: In an ELISA, binding on a coated surface is turned into a signal by an enzyme label.
For B6, the “ELISA fold over background” value worked out at 39.4 fold.
On the same count and under the same terms, the result for B7 reads 38.3 fold.

The target of another test is T3, SARS-CoV-2 spike on live SARS-CoV-2 virus (SARS-CoV-2, UniProt P0DTC2 14-1273). The experiment in a line: cell-based or functional assay.
One may read the EC50 as the concentration at which the effect is half-maximal. Low values mean an effect from little substance, high ones a need for much substance. For the molecule B8, the “EC50” value turned out to be 67.6 µg/mL.
Consider B9, for which the “EC50” value turned out to be 18.3 µg/mL.

The next test has as its target SARS-CoV-2 spike on VSV-pseudotype SARS-CoV-2 (SARS-CoV-2, UniProt P0DTC2 14-1273). The experiment in a line: cell-based or functional assay.
B8: the “NC50” value is 67.6 µg/mL.
Still for that read-out and setting: with B9 the figure was 18.3 µg/mL.

A further test deals with T3, SARS-CoV-2 spike on live SARS-CoV-2 …. The experiment in a line: cell-based or functional assay. This is another data set of the same source.
The EC80 is the concentration needed for an effect of 80%. A low value points to greater potency. For B8, the “EC80” value amounted to 355 µg/mL.
For the molecule B9, the 80% effect level (EC80) was put at 106 µg/mL.

A further test concerns the target T1, SARS-CoV-2 S protein trimer. In words: Carterra SPR, Fc capture, S trimer.
The molecule B10 gave a Kd of 23600 nM.
Same read-out and setting: with B1 the figure was 0.8 nM; with B2, 3.2 nM.
B4 returned a Kd of 90.2 nM. Against the preceding molecule, the Kd is about 28-fold higher.

The next test addresses Acro COVID S1 (S1N-C82E8) (SARS-CoV-2, UniProt P0DTC2 16-685). In words: phage ELISA.
Take B11: the “specificity ELISA, fold over background” value worked out at 1.2 fold over background.
Turning to B12, the “specificity ELISA, fold over background” value is 24.1 fold over background.
Turning to B13, the “specificity ELISA, fold over background” value came out at 39.4 fold over background.
Still for that read-out and setting: with B14 the figure was 35.9 fold over background; with B15, 39.8 fold over background.
On to B16, for which the “specificity ELISA, fold over background” value turned out to be 37.7 fold over background.
The same measure, in the same setting: the result for B17 reads 27.3 fold over background; that for B18, 38.3 fold over background.

Values taken from US20210355194A1 (TWIST BIOSCIENCE, published 2021).
